Test results from patent publication US20030166232A1 (LUDWIG INSTITUTE FOR CANCER RESEARCH, published 2003).

B1: PARG (PTPL1 Associated RhoGAP), the 150 kDa component from PC-3 cell lysate (other)
chain: MIAHKQKKTKKKRAWASGQLSTDITTSEMGLKSLSSNSIFDPDYIKELVNDIRKFSHILLYLKEAIFSDCFKEVIHIRLEELLRVLKSIMNKHQNLNSVDLQNAAEMLTAKVKAVNFTEVNEENKNDLFQEVFSSIETLAFTFGNILTNFLMGDVGNDSFLRLPVSRETKSFENVSVESVDSSSEKGNFSPLELDNVLLKNTDSIELALSYAKTWSKYTKNIVSWVEKKLNLELESTRNMVKLAEATRTNIGIQEFMPLQSLFTNALLNDIESSHLLQQTIAALQANKFVQPLLGRKNEMEKQRKEIKELWKQEQNKMLEAENALKKAKLLCMQRQDEYEKAKSSMFRAEEEHLSSSGGLAKNLNKQLEKKRRLEEEALQKVEEADELYKVCVTNVEERRNDVENTKREILAQLRTLVFQCDLTLKAVTVNLFHMQHLQAASLADRLQSLCGSAKLYDPGQEYSEFVKATNSTEEEKVDGNVNKHLNSSQPSGFGPANSLEDVVRLPDSSNKIEEDRCSNSADITGPSFIRSWTFGMFSDSESTGGSSESRSLDSESISPGDFHRKLPRTPSSGTMSSADDLDEREPPSPSETGPNSLGTFKKTLMSKAALTHKFRKLRSPTKCRDCEGIVVFQGVECEECLLVCHRKCLENLVIICGHQKLPGKIHLFGAEFTLVAKKEPDGIPFILKICASEIENRALCLQGIYRVCGNKIKTEKLCLALENGMHLVDISEFSSHDICDVLKLYLRQLPEPFILFRLYKEFIDLAKEIQHVNEEQETKKNSLEDKKWPNMCIEINRILLKSKDLLRQLPASNFNSLHFLIVHLKRVVDHAEENKMNSKNLGVIFGPSLIRPRPQTAPITISSLAEYSNQARLVEFLITYSQKIFDGSLQPQDVMCSIGVVDQGCFPKPLLSPEERDIERSMKSLFFSSKEDIHTSESESKIFERATSFEESERKQNALGKCDACLSDKAQLLLDQEAESASQKIEDGKAPKPLSLKSDRSTNNVERHTPRTKIRPVSLPVDRLLLASPPNERNGRNMGNVNLDKFCKNPAFEGVNRKDAATTVCSKFNGFDQQTLQKIQDKQYEQNSLTAKTTMIMPSALQEKGVTTSLQISGDHSINATQPSKPYAEPVRSVREASERRSSDSYPLAPVRAPRTLQPQHWTTFYKPHAPIISIRGNEEKPASPSAACPPGTDHDPHGLVVKSMPDPDKASACPGQATGQPKEDSEELGLPDVNPMCQRPRLKRMQQFEDLEDEIPQFV
notes: In the pull-down it was the endogenous, 35S-labelled 150 kDa protein in PC-3 cell lysate; also called 150 kDa protein

How the values were obtained:
Experiment in all cases: GST pull-down from 35S-labelled PC-3 cell lysate, SDS-gel, fluorography
[1] = molecular target: T1, GST-PDZ 2-3 (glutathione S-transferase fused to PTPL1 residues 1340-1579) (Homo sapiens (Human), UniProt Q12923 1359-1598)
T1 construct: not shown: glutathione S-transferase (GST) encoded by the expression vector pGEX1 lambda T (Pharmacia)
T1 sequence: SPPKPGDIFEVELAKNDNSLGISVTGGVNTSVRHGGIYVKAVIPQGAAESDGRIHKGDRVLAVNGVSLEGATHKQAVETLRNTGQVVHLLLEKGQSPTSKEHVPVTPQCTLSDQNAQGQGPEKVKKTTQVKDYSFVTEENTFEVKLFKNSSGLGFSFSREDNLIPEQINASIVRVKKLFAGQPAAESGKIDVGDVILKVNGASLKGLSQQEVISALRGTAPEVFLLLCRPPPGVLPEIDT
Protocol: (§1) PC-3 cells were obtained from American Type Culture Collection (Rockville, Md.) and cultured as described (Saras et al., 1994). Metabolic labeling of PC-3 cells was performed for 4 h in methionine-and cysteine-free MCDB 104 medium (Gibco/Life Technologies, Gaithersburg, Md.) with […] of ³⁵S-methionine and ³⁵S-cysteine (in vivo labeling mix; Amersham, Arlington Heights, Ill.). After labeling, the cells were solubilized in buffer containing 20 mM Tris-HCI, pH 7.4,150 mM NaCl, 10 mM EDTA, 0.5% Triton X-100, 0.5% deoxycholate, 1 mM dithiothreitol, 1.5% Trasylol (Bayer, Germany) and 1 mM phenylmethylsulfonyl fluoride (Sigma, St. Louis, Mo.). After 15 min on ice, cell debris was removed by centrifugation. Samples (1 ml) were then incubated for 1.5 h at 4° C. with 10 μg of GST-PDZ fusion proteins bound to glutathione-Sepharose 4B beads (Pharmacia). The beads were pelleted and washed four times with solubilization buffer. The protein complexes were eluted by boiling for 5 min in SDS-sample buffer (100 mM Tris-HCI, pH 8.8, 0.01% bromophenol blue, 36% glycerol, 4% SDS, 10 mM dithiothreitol) and analyzed by SDS-gel electrophoresis using 5-12% polyacrylamide gels (Blobel and Dobberstein, J. Cell Biol. 67:835-851, 1975). The gel was fixed, incubated with Amplify (Amersham) for 20 min, dried and subjected to fluorography.

[2] = molecular target: T2, GST-PDZ 5 (glutathione S-transferase fused to PTPL1 residues 1856-1960) (Homo sapiens (Human), UniProt Q12923 1875-1979)
T2 construct: not shown: glutathione S-transferase (GST) encoded by the expression vector pGEX1 lambda T (Pharmacia)
T2 sequence: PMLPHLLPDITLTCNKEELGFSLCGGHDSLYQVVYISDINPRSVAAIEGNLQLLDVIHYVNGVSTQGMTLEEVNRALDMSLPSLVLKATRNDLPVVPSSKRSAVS
Protocol: as §1

[3] = molecular target: B1
Protocol: as §1

Q: Does B1 bind [1]?
A: no binding (tested: 10 µg of GST-PDZ fusion protein)

Q: Does B1 bind [2]?
A: no binding (tested: 10 µg of GST-PDZ fusion protein)

B2: GST-PDZ 1 (glutathione S-transferase fused to PTPL1 residues 1066-1166) (other)
chain: SSPEREITLVNLKKDAKYGLGFQIIGGEKMGRLDLGIFISSVAPGGPADFHGCLKPGDRLISVNSVSLEGVSHHAAIEILQNAPEDVTLVISQPKEKISKV
notes: not shown: glutathione S-transferase (GST) encoded by the expression vector pGEX1 lambda T (Pharmacia)
Q: Does B2 bind [3]?
A: no binding (tested: 10 µg of GST-PDZ fusion protein)

B3: GST-PDZ 3 (glutathione S-transferase fused to PTPL1 residues 1469-1579) (other)
chain: VKDYSFVTEENTFEVKLFKNSSGLGFSFSREDNLIPEQINASIVRVKKLFAGQPAAESGKIDVGDVILKVNGASLKGLSQQEVISALRGTAPEVFLLLCRPPPGVLPEIDT
notes: as for B2
Q: Does B3 bind [3]?
A: no binding (tested: 10 µg of GST-PDZ fusion protein)
